Measured values from US20060134087A1, “ITI-D1 Kunitz domain mutants as hNE inhibitors” (Dyax Corp., priority 1988, published 2006).
Several values for one entry are separate records, joined by “and”; a condition that tells them apart may be missing. Identical values can stand only once.

Molecular target: T1, agarose-immobilized hNE beads (Homo sapiens, UniProt P08246)
T1 sequence (P08246 30-267): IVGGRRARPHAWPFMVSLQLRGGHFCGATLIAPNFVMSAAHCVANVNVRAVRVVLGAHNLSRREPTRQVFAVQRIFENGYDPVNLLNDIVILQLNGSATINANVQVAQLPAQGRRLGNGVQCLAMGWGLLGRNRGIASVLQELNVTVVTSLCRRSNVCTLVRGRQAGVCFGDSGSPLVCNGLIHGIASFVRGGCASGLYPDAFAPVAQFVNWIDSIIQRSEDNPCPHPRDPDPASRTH
Assay: pH fractionation of display phage on agarose-immobilized hNE beads
Format: binding
Set-up: Fraction of Input recovered at pH7.0: scale not given here
Conditions: for Recovery Total: total fraction of input; for effect of change on binding of display phage to hNE-beads / reduction of display phage binding to hNE-beads: relative to parental MA-BITI-E7-141; for fraction of input: abbreviated fractionation
Excerpt: For the purpose of simultaneously assessing the affinity of a large number of different BPTI and ITI-D1 muteins, DNA sequences encoding the BPTI or ITI-D1 was incorporated into the genome of the bacteriophage M13. […] Alterations in the KuDom amino acid sequence were introduced. Each pure population of phage displaying a particular KuDom was characterized with regard to its interactions with immobilized hNE or hCG. Based on comparison to the pH elution profiles of phage displaying other KuDoms of known affinities for the particular protease, mutant KuDoms having high affinity for the target proteases were identified. Subsequently, the sequences of these mutant KuDoms were determined (typically by sequencing the corresponding DNA sequence).
To test if phage displaying the ITI-D1::III fusion protein interact strongly with the proteases human neutrophil elastase (hNE), aliquots of display phage were incubated with agarose-immobilized hNE beads (“hNE beads”). The beads were washed and bound phage eluted by pH fractionation as described in U.S. Pat. No. 5,223,409. The pHs used in the step gradient were 7.0, 6.0, 5.5, 5.0, 4.5, 4.0, 3.5, 3.0, 2.5, and 2.0. Following elution and neutralization, the various input, wash, and pH elution fractions were titered. Phage displaying ITI-D1 were compared to phage that display EpiNE-7.
To test if ITI-D1E7-display phage bind hNE beads, pH elution profiles were measured. Aliquots of EpiNE-7, MA-ITI-D1, and MA-ITI-D1E7 display phage were incubated with hNE beads for three hours at room temperature (RT). The beads were washed and phage were eluted as described in U.S. Pat. No. 5,223,409, except that only three pH elutions were performed. […] The pH elution profile of EpiNE-7 display phage is as described. MA-ITI-D1E7 phage show a broad elution maximum around pH 5. The total fraction of MA-ITI-D1E7 phage obtained on pH elution from hNE beads was about 40-fold less than that obtained using EpiNE-7 display phage.
We characterized the binding properties to hNE-beads of MA-BITI and MA-BITI-E7 display phage using the extended pH fractionation procedure described in U.S. Pat. No. 5,223,409.
The binding capacity of hNE-beads for display phage varies among preparations of beads and with age for each individual preparation of beads. Thus, it is difficult to directly compare absolute yields of phage from elutions performed at different times. For example, the fraction of MA-EpiNE7 display phage recovered from hNE-beads varies two-fold among the experiments shown in Tables 14, 16, and 17. However, the shapes of the pH elution profiles are similar. It is possible to correct somewhat for variations in binding capacity of hNE-beads by normalizing display phage yields to the total yield of MA-EpiNE7 phage recovered from the beads in a concurrent elution. When the data shown in Tables 14, 16, and 17 are so normalized, the recoveries of display phage, relative to recovered MA-EpiNE7, are shown in Table 3.
ITI-D1 derivative BITI-E7-1222 is BITI-E7 with the alteration A11T. ITI-D1 derivative BITI-E7-141 is BITI-E7 with the alterations E31Q and Q34V; phage that display the presence of these proteins are MA-BITI-E7-1222 and MA-BITI-E7-141. We determined the binding properties to hNE-beads of MA-BITI-E7-1222 and MA-BITI-E7-141 display phage using the extended pH fractionation protocol described previously. The results are in Tables 18 (for MA-BITI-E7 and MA-BITI-E7-1222) and 19 (for MA-EpiNE7 and MA-BITI-E7-141). The pH elution profiles for the MA-BITI-E7 and MA-BITI-E7-1222 phage are almost identical.
Total pfu applied to the beads are in column two. The fractions of this input pfu recovered in each pH fraction of the abbreviated pH elution protocol (pH 7.0, pH 3.5, and pH 2.0) are in the next three columns. […]

[1] = EE extended pH elution protocol
[2] = EE, sum of pH 3.0, 2.5, 2.0 samples
[3] = EE, sum of pH 6.0 to pH 3.5 samples
[4] = AE abbreviated pH elution protocol
[5] = SUM of all pH elution fractions
[6] = extended protocol, final TBS-TWEEN wash
[7] = extended protocol, pH 3.0 fraction
[8] = extended protocol, pH 4.0 fraction
[9] = extended protocol, pH 4.5 fraction
[10] = extended protocol, pH 5.0 fraction
[11] = extended protocol, pH 5.5 fraction
[12] = extended protocol, pH 7.0 fraction

MUTT26A: BITI-E7-141 with T26A; SEQ ID NO 018 (RPDFCQLGYSAGPCVAMFPRYFYNGASMACQTFVYGGCMGNGNNFVTEKDCLQTCRGA; MUTT26A)
Fraction of Input recovered at pH7.0 [1]: 2.5 | Fraction of Input recovered at pH2.0 [2]: 3.3 ×10^−4 | Fraction of Input recovered at pH3.5 [3]: 19.0 ×10^−4 | Recovery Total (EE): 25.0 ×10^−4 | Fraction of Input bound (range of the affinity class): >0.1% | pH Elution Maximum (range of the affinity class): ≦4.0 pH | effect of change on binding of display phage to hNE-beads: little effect

ITI-D1E7: ITI-D1 with EpiNE-7 sequence at positions 15-20, SEQ ID NO 021 (KEDSCQLGYSAGPCVAMFPRYFYNGTSMACETFQYGGCMGNGNNFVTEKDCLQTCRGA; ITI-D1E7)
estimated affinity of free protein for hNE (estimated from pH elution profile of display phage): in the nM range

AMINO2: ITI-D1 derivative carrying K1-S4, SEQ ID NO 023 (KPDSCQLGYSAGPCVAMFPRYFYNGTSMACETFQYGGCMGNGNNFVTEKDCLQTCRGA; AMINO2)
Fraction of Input recovered at pH2.0 [4]: 0.45 ×10^−4 | Fraction of Input recovered at pH3.5 [4]: 2.1 ×10^−4 | Fraction of Input recovered at pH7.0 [4]: 0.57 | Recovery Total (AE): 3.1 ×10^−4 | reduction of display phage binding to hNE-beads: at least ten fold

BITI-E7-141: BITI-E7 with the alterations E31Q and Q34V; SEQ ID NO 017 (RPDFCQLGYSAGPCVAMFPRYFYNGTSMACQTFVYGGCMGNGNNFVTEKDCLQTCRGA; BITI-E7-141)
fold greater affinity for hNE than BITI-E7: approximately 100 fold | Fraction of Input recovered at pH2.0 [4]: 5.4 ×10^−4 | Fraction of Input recovered at pH3.5 [4]: 18.0 ×10^−4 | Fraction of Input recovered at pH7.0 [4]: 2.2 | Recovery Total (AE): 26.0 ×10^−4 | Fraction of Input recovered at pH7.0 [1]: 2.1 | Fraction of Input recovered at pH2.0 [2]: 3.2 ×10^−4 | Fraction of Input recovered at pH3.5 [3]: 21. ×10^−4 | Recovery Total (EE): 26.0 ×10^−4 | Fraction of Input bound (range of the affinity class): >0.1% | pH Elution Maximum (range of the affinity class): ≦4.0 pH

AMINO1: ITI-D1 derivative carrying K1-E2, SEQ ID NO 022 (KEDFCQLGYSAGPCVAMFPRYFYNGTSMACETFQYGGCMGNGNNFVTEKDCLQTCRGA; AMINO1)
Fraction of Input recovered at pH7.0 [1]: 0.24 | Fraction of Input recovered at pH2.0 [2]: 0.35 ×10^−4 | Fraction of Input recovered at pH3.5 [3]: 2.3 ×10^−4 | Recovery Total (EE): 2.9 ×10^−4 | reduction of display phage binding to hNE-beads: at least ten fold

BITI-E7: ITI-D1E7 with K1R, E2P and S4F; SEQ ID NO 142 (RPDFCQLGYSAGPCVAMFPRYFYNGTSMACETFQYGGCMGNGNNFVTEKDCLQTCRGA; BITI-E7)
fold greater affinity for hNE than ITI-D1E7: ten-fold

BITI-E7-1222: BITI-E7 with the alteration A11T; SEQ ID NO 143 (RPDFCQLGYSTGPCVAMFPRYFYNGTSMACETFQYGGCMGNGNNFVTEKDCLQTCRGA; BITI-E7-1222)
Fraction of Input recovered at pH7.0 [1]: 0.72 | Fraction of Input recovered at pH2.0 [2]: 0.64 ×10^−4 | Fraction of Input recovered at pH3.5 [3]: 4.0 ×10^−4 | Recovery Total (EE): 5.4 ×10^−4

MUT1619: BITI-E7-141 with ITI-D1 residues restored at 16 and 19; SEQ ID NO 020 (RPDFCQLGYSAGPCVGMFSRYFYNGTSMACQTFVYGGCMGNGNNFVTEKDCLQTCRGA; MUT1619)
Fraction of Input recovered at pH7.0 [1]: 0.82 | Fraction of Input recovered at pH2.0 [2]: 0.84 ×10^−4 | Fraction of Input recovered at pH3.5 [3]: 9.9 ×10^−4 | Recovery Total (EE): 12.0 ×10^−4 | Fraction of Input bound (range of the affinity class): >0.1% | pH Elution Maximum (range of the affinity class): ≦4.0 pH

EpiNE7: BPTI-derived Kunitz domain, SEQ ID NO 009; in Tables 14-16 the phage displaying it
fold greater affinity for hNE than ITI-D1E7: roughly 1000 fold | Fraction of Input recovered at pH7.0 [1]: 0.44 | Fraction of Input recovered at pH2.0 [2]: 2.2 ×10^−4 | Fraction of Input recovered at pH3.5 [3]: 6.4 ×10^−4 | Recovery Total (EE): 9.0 ×10^−4 | pfu [5]: 6.4 · 10^6 pfu and 7.6 · 10^6 pfu | pfu/INPUT (fraction of input) [5]: 3 · 10^−3 and 4.1 · 10^−3 | fraction of input [5]: 4.3 · 10^−3 | fraction of input (Wash): 6 · 10^−5 | fraction of input (pH 2.0): 1 · 10^−3 | fraction of input (pH 3.5): 3 · 10^−3 | fraction of input (pH 7.0): 3 · 10^−4 | total fraction of input phage eluted from hNE beads (all pH elution fractions): About 0.3% | pH Elution Maximum (display phage on hNE beads): ~4.0 pH | pfu [6]: 3.8 · 10^5 pfu | pfu/INPUT (fraction of input) [6]: 1.2 · 10^−4 | pfu (extended protocol, pH 2.0 fraction): 3.0 · 10^5 pfu and 2.9 · 10^5 pfu | pfu (extended protocol, pH 2.5 fraction): 1.6 · 10^5 pfu and 2.8 · 10^5 pfu | pfu [7]: 6.6 · 10^5 pfu and 3.8 · 10^5 pfu | pfu/INPUT (fraction of input) [7]: 2.0 · 10^−4 and 2.1 · 10^−4 | pfu [8]: 1.6 · 10^6 pfu and 1.7 · 10^6 pfu | pfu/INPUT (fraction of input) [8]: 4.8 · 10^−4 and 9.4 · 10^−4 | pfu [9]: 1.2 · 10^6 pfu and 1.1 · 10^6 pfu | pfu/INPUT (fraction of input) [9]: 3.5 · 10^−4 and 6.1 · 10^−4 | pfu [10]: 9.5 · 10^5 pfu and 8.4 · 10^5 pfu | pfu/INPUT (fraction of input) [10]: 2.9 · 10^−4 and 4.7 · 10^−4 | pfu [11]: 9.4 · 10^5 pfu and 7.8 · 10^5 pfu | pfu/INPUT (fraction of input) [11]: 2.8 · 10^−4 and 4.3 · 10^−4 | pfu/INPUT (fraction of input) (extended protocol, pH 6.0 fraction): 4.1 · 10^−4 and 3.6 · 10^−4 | pfu [12]: 6.2 · 10^5 pfu and 5.2 · 10^5 pfu | pfu/INPUT (fraction of input) [12]: 1.8 · 10^−4 and 2.9 · 10^−4

MUTQE: BITI-E7-141 with Q31E; SEQ ID NO 019 (RPDFCQLGYSAGPCVAMFPRYFYNGTSMACETFVYGGCMGNGNNFVTEKDCLQTCRGA; MUTQE)
Fraction of Input recovered at pH2.0 [4]: 5.3 ×10^−4 | Fraction of Input recovered at pH3.5 [4]: 16. ×10^−4 | Fraction of Input recovered at pH7.0 [4]: 1.2 | Recovery Total (AE): 22.0 ×10^−4 | Fraction of Input bound (range of the affinity class): >0.1% | pH Elution Maximum (range of the affinity class): ≦4.0 pH | effect of change on binding of display phage to hNE-beads: little effect

MUTP1: ITI-D1 derivative asserting I15, G16, S19; SEQ ID NO 024 (RPDFCQLGYSAGPCIGMFSRYFYNGTSMACETFQYGGCMGNGNNFVTEKDCLQTCRGA; MUTP1)
Fraction of Input recovered at pH2.0 [4]: 1.2 ×10^−4 | Fraction of Input recovered at pH3.5 [4]: 9.2 ×10^−4 | Fraction of Input recovered at pH7.0 [4]: 1.8 | Recovery Total (AE): 12.0 ×10^−4
